Measurements taken from publication PMC5340911.

T1: Pab2 (nuclear poly(A) binding protein) (Schizosaccharomyces pombe, UniProt O14327 1-166)
T1 sequence: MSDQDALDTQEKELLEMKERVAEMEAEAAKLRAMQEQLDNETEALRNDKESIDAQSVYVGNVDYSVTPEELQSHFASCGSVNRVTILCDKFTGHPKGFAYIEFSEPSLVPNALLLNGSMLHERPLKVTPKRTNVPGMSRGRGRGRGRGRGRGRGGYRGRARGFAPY

T2: PABPN1 (His-PABPN1) (bovine, UniProt Q28165 1-306)
T2 sequence: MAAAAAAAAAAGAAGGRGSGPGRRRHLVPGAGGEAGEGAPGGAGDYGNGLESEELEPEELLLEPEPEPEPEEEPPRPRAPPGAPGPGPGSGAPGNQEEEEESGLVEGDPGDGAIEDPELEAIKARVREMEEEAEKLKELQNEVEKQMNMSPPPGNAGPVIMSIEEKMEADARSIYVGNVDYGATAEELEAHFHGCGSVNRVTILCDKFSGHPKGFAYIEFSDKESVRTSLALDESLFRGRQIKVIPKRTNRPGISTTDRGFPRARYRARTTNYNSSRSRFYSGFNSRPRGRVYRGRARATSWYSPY

B1: A100 (ssRNA)
RNA: AAAAAAAAAAAAAAAAAAAAAAAAAAAAAAAAAAAAAAAAAAAAAAAAAAAAAAAAAAAAAAAAAAAAAAAAAAAAAAAAAAAAAAAAAAAAAAAAAAAA

How the values were obtained:
Assay in all cases: filter binding
[1] = biological target: T1, Pab2 (nuclear poly(A) binding protein)
PABPN1 (His-PABPN1) = biological target: T2, PABPN1 (His-PABPN1)
[2] = biological target: T1, Pab2 (nuclear poly(A) binding protein); remark: listed apart in the source

Row | Binder | Kd [1] [nM] | binding result (PABPN1 (His-PABPN1)) | binding result [2]
1 | AAAAAAAAAAAAAA (ssRNA) [A14] | 5.3 ± 1.1 | – | –
2 | B1 | – | binds | binds
